{"source": "paper doi:10.64898/2026.08.16.745104", "about": "“C. elegans Dicer stacks with the RIG-I-like receptor DRH-1 to cleave dsRNA”", "binders": {"B1": {"name": "3'ovr 106-dsRNA (dsRNA)", "RNA 1": "GGCAAUGAAAGACGGUGAGCUGGUGAUAUGGGAUAGUGUUCACCCUUGUUACACCGUUUUCCAUGAGCAAACUGAAACGUUUUCAUCGCUCUGGAGUGAAUACCAA", "RNA 2": "GGUAUUCACUCCAGAGCGAUGAAAACGUUUCAGUUUGCUCAUGGAAAACGGUGUAACAAGGGUGAACACUAUCCCAUAUCACCAGCUCACCGUCUUUCAUUGCCAA"}}, "molecular_target": "DCR-1;DRH-1;RDE-4 (Caenorhabditis elegans;Caenorhabditis …, UniProt P34529;G5EDI8;G5EBF5 1-1910;1-1037;1-385, ||)", "sequence (P34529 whole entry, chain 1 of 3)": "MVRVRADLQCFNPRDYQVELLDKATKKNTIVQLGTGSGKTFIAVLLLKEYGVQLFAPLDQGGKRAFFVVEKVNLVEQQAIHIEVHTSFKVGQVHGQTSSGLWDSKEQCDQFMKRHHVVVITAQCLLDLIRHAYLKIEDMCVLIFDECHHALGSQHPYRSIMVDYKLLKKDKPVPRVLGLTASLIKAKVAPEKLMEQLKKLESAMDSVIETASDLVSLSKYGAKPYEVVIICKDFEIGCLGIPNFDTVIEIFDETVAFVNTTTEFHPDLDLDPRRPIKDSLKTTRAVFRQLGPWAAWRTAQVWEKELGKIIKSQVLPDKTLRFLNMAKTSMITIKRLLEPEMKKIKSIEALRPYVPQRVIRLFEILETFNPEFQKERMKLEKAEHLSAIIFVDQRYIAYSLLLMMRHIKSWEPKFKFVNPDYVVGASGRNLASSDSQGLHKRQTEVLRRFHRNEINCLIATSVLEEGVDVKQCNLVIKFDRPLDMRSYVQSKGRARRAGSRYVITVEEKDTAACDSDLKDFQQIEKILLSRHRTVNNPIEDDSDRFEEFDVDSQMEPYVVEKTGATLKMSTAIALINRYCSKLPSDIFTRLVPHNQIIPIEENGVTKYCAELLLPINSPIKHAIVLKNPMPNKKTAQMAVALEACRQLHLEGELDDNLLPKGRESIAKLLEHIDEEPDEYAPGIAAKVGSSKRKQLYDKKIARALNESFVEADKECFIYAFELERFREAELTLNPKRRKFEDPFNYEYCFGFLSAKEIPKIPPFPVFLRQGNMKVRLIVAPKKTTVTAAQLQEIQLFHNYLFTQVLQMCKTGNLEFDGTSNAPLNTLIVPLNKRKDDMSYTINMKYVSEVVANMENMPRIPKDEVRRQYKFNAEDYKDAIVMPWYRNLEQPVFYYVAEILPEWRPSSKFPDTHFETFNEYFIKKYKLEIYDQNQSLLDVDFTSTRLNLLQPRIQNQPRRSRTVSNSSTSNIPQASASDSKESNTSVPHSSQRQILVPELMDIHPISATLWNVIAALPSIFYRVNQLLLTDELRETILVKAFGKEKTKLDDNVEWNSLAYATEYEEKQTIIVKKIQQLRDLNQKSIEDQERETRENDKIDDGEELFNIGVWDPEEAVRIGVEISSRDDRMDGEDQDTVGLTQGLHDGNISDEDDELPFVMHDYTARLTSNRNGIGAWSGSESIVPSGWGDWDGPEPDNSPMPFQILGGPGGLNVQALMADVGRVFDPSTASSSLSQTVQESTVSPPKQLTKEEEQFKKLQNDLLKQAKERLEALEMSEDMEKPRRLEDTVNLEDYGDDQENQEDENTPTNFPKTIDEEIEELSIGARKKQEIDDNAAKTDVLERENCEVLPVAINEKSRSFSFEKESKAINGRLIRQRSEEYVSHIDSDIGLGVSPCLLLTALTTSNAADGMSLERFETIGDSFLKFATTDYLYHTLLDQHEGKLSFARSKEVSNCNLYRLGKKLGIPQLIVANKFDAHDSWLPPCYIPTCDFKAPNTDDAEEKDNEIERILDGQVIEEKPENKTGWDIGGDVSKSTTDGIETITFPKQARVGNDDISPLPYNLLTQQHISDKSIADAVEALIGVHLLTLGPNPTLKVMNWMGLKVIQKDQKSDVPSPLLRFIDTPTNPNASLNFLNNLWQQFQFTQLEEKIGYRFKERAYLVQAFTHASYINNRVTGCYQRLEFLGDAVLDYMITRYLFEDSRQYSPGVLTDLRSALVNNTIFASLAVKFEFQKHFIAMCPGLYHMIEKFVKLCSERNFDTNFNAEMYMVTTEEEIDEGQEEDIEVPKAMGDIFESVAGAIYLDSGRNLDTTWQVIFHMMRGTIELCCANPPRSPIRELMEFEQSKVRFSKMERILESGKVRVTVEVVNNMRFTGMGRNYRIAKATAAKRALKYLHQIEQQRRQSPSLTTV", "sequence (chain, as listed by the source ||, chain 2 of 3)": "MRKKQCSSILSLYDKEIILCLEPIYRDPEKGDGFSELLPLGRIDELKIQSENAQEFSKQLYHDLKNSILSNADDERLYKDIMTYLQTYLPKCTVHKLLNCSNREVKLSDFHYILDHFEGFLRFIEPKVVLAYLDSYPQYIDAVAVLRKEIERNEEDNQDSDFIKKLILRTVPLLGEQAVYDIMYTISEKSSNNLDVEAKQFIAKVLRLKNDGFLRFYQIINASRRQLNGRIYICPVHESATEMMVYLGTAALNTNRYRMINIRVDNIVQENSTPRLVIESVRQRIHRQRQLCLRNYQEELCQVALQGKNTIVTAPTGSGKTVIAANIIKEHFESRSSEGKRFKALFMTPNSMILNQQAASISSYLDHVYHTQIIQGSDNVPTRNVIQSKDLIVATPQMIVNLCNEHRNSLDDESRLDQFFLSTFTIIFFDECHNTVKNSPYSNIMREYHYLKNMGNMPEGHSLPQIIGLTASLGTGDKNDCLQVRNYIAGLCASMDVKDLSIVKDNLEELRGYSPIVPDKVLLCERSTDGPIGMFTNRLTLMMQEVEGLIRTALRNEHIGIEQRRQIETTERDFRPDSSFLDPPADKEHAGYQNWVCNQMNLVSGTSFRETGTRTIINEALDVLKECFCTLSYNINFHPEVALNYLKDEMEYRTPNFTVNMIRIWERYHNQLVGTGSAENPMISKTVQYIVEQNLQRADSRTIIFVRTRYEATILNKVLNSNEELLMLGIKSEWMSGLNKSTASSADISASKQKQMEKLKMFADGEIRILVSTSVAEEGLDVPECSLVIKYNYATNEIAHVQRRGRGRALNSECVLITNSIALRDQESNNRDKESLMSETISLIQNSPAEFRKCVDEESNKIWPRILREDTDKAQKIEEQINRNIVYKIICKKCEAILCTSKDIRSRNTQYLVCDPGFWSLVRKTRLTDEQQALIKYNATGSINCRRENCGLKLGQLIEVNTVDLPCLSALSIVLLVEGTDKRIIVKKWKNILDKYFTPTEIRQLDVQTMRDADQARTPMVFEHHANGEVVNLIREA", "sequence (chain, as listed by the source ||, chain 3 of 3)": "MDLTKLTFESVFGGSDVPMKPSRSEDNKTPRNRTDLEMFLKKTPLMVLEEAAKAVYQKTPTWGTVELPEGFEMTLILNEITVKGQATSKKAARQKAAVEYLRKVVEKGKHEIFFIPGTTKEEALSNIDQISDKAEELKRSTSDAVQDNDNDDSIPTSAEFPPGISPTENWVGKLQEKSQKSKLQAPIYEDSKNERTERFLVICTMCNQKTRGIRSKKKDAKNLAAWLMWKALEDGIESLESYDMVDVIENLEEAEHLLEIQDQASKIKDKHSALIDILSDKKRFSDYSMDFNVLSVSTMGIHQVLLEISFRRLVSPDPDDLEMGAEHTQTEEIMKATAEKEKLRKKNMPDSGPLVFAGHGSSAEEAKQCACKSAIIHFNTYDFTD", "assay": "cryo-EM structure, 3.0 A; 5 mM ATP, 20 C; ADP modelled in DCR-1, DRH-1 and DRH-1*; Mg2+; cleavage-competent state, poised for second cleavage; RDE-4 dsRBM2 density not seen; Cryo-EM; sample buffer not given in material. Lysis/resuspension buffer 25 mM HEPES pH 7.5, 10 mM KOAc, 2 mM Mg(OAc)2, 100 mM KCl, 1 mM TCEP, 5% glycerol; RNA annealed in 50 mM Tris pH 8.0, 20 mM KCl; ATP sample incubated at 20 C", "conditions": "protein: recombinant;recombinant;recombinant; (StrepTrap purification); copies: 1;1;1; 2 nt 3' overhangs at both termini", "data": [{"binder": "B1", "values": [{"measurement": "binding result", "result": "binds"}]}]}
